± gives the uncertainty stated by the source.
Test: self-splicing fitness, log relative to wild type (ln ratio); higher = more splicing; Tetrahymena group I intron in knt gene, E. coli kanamycin selection, DiMSum; sequences stand for … in CUCUCU…GGAGGGAAAAGUUAUCAGGCAUGCACCUGGUAGCUAGUCUUUAAACCAAUAGAUUGCAUCGGUUUAAAAGGCAAGACCGUCAAAUUGCGGGAAAGGGGUCAACAGCCGUUCAGUACCAAGUCUCAGGGGAAACUUUGAGAUGGCCUUGCAAAGGGUAUGGUAAUAAGCUGACGGACAUGGUCCUAACCACGCAGCCAAGUCCUAAGUCAACAGAUCUUCUGUUGAUAUGGAUGCAGUUCACAGACUAAAUGUCGGUCGGGGAAGAUGUAUUCUUCUCAUAAGAUAUAGUCGGACCUCUCCUUAAUGGGAGCUAGCGGAUGAAGUGAUGCAACACUGGAGCCGCUGGGAACUAAUUUGUAUGCGAAAGUAUAUUGAUUAGUUUUGGAGUACUCGUGGUCG
Method in brief: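 DiMSum derived fitness as the error-weighted combination of fold changes across replicates, kanamycin versus no kanamycin, normalised to wild type. E. coli BL21(DE3) held the library, which randomised all eight P1ex-region intron nucleotides within the knt kanamycin-resistance gene on pET-22b(+). Six replicate transformations grew overnight at 37°C or 30°C on LB agar with or without 25 μg/mL kanamycin, also containing 100 μg/mL carbenicillin, 50 μM IPTG and 0.2% rhamnose, and pooled colonies were amplicon-sequenced on an Illumina HiSeq 2500.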

GGCUAGCAAUAUUACGACGA
self-splicing fitness (ln) (30 °C): -1.31 ± 0.15 | self-splicing fitness (ln) (37 °C): -1.08 ± 0.17

AAAGAGCAAUAUUACGUGCA
self-splicing fitness (ln) (30 °C): -2.3 ± 0.14 | self-splicing fitness (ln) (37 °C): -1.19 ± 0.13

UUUAAGCAAUAUUACGCCGU
self-splicing fitness (ln) (30 °C): -1.49 ± 0.41 | self-splicing fitness (ln) (37 °C): -1.84 ± 0.27

UCGGAGCAAUAUUACGAAGG
self-splicing fitness (ln) (30 °C): -2.58 ± 0.45

UGGGAGCAAUAUUACGGGCU
self-splicing fitness (ln) (30 °C): -1.78 ± 0.35

UUAGAGCAAUAUUACGGAGG
self-splicing fitness (ln) (30 °C): -2.3 ± 0.13 | self-splicing fitness (ln) (37 °C): -1.84 ± 0.18

UAAAAGCAAUAUUACGUCGG
self-splicing fitness (ln) (30 °C): -0.992 ± 0.097 | self-splicing fitness (ln) (37 °C): -0.876 ± 0.12

CAAGAGCAAUAUUACGUCCC
self-splicing fitness (ln) (37 °C): -1.59 ± 0.28

AACCAGCAAUAUUACGACCC
self-splicing fitness (ln) (30 °C): -0.941 ± 0.1 | self-splicing fitness (ln) (37 °C): 0.421 ± 0.13

UCAGAGCAAUAUUACGGGCG
self-splicing fitness (ln) (30 °C): -2.45 ± 0.17 | self-splicing fitness (ln) (37 °C): -2 ± 0.25

ACACAGCAAUAUUACGCGGU
self-splicing fitness (ln) (30 °C): -4.42 ± 0.23 | self-splicing fitness (ln) (37 °C): -2.89 ± 0.17

UUUGAGCAAUAUUACGGCUG
self-splicing fitness (ln) (30 °C): -0.955 ± 0.11 | self-splicing fitness (ln) (37 °C): -0.634 ± 0.17

CAAAAGCAAUAUUACGCAGC
self-splicing fitness (ln) (30 °C): -3.68 ± 0.16 | self-splicing fitness (ln) (37 °C): -2.36 ± 0.16

UUUAAGCAAUAUUACGUGGG
self-splicing fitness (ln) (30 °C): -2.92 ± 0.13 | self-splicing fitness (ln) (37 °C): -2.1 ± 0.17

GUAGAGCAAUAUUACGCUCU
self-splicing fitness (ln) (30 °C): -3.31 ± 0.43

CCCAAGCAAUAUUACGCCGC
self-splicing fitness (ln) (30 °C): -2.08 ± 0.37 | self-splicing fitness (ln) (37 °C): -1.07 ± 0.4

UGGGAGCAAUAUUACGGUUG
self-splicing fitness (ln) (30 °C): -2.07 ± 0.22

UCACAGCAAUAUUACGAGAA
self-splicing fitness (ln) (30 °C): -3.16 ± 0.34 | self-splicing fitness (ln) (37 °C): -1.68 ± 0.24

ACCCAGCAAUAUUACGCAUG
self-splicing fitness (ln) (30 °C): -4.1 ± 0.15 | self-splicing fitness (ln) (37 °C): -2.58 ± 0.15

AAUCAGCAAUAUUACGAGGC
self-splicing fitness (ln) (30 °C): -3.28 ± 0.25 | self-splicing fitness (ln) (37 °C): -2.47 ± 0.23

CAAUAGCAAUAUUACGCACC
self-splicing fitness (ln) (30 °C): -3.66 ± 0.3

GAAUAGCAAUAUUACGAUCA
self-splicing fitness (ln) (30 °C): -1.11 ± 0.12 | self-splicing fitness (ln) (37 °C): 0.308 ± 0.11

AGAAAGCAAUAUUACGUUAG
self-splicing fitness (ln) (30 °C): -2.91 ± 0.19 | self-splicing fitness (ln) (37 °C): -2.69 ± 0.18

UCAAAGCAAUAUUACGUGCC
self-splicing fitness (ln) (30 °C): -2.35 ± 0.18 | self-splicing fitness (ln) (37 °C): -1.57 ± 0.39

ACGCAGCAAUAUUACGGCCA
self-splicing fitness (ln) (30 °C): -0.646 ± 0.092 | self-splicing fitness (ln) (37 °C): 0.161 ± 0.12

GAUAAGCAAUAUUACGAGUC
self-splicing fitness (ln) (30 °C): -3.11 ± 0.27 | self-splicing fitness (ln) (37 °C): -1.32 ± 0.17

AGAAAGCAAUAUUACGUGCA
self-splicing fitness (ln) (30 °C): -0.717 ± 0.079 | self-splicing fitness (ln) (37 °C): -0.292 ± 0.099

AACCAGCAAUAUUACGAUCC
self-splicing fitness (ln) (30 °C): -0.433 ± 0.078 | self-splicing fitness (ln) (37 °C): -0.358 ± 0.12

AUUGAGCAAUAUUACGACCU
self-splicing fitness (ln) (30 °C): -3.17 ± 0.27 | self-splicing fitness (ln) (37 °C): -0.0611 ± 0.17

AUAGAGCAAUAUUACGUCCC
self-splicing fitness (ln) (30 °C): -2.36 ± 0.48

ACCCAGCAAUAUUACGGUUU
self-splicing fitness (ln) (30 °C): -0.863 ± 0.041 | self-splicing fitness (ln) (37 °C): 0.0681 ± 0.056

UGGAAGCAAUAUUACGAACC
self-splicing fitness (ln) (30 °C): -1.6 ± 0.13 | self-splicing fitness (ln) (37 °C): -0.663 ± 0.12

GCCCAGCAAUAUUACGAUAG
self-splicing fitness (ln) (30 °C): -2.76 ± 0.14 | self-splicing fitness (ln) (37 °C): -3.33 ± 0.2

UUACAGCAAUAUUACGCUGC
self-splicing fitness (ln) (30 °C): -2.9 ± 0.35

CCGAAGCAAUAUUACGGCGU
self-splicing fitness (ln) (30 °C): -3.6 ± 0.17 | self-splicing fitness (ln) (37 °C): -2.79 ± 0.17

CAGAAGCAAUAUUACGUCAC
self-splicing fitness (ln) (30 °C): -3.02 ± 0.36 | self-splicing fitness (ln) (37 °C): -1.05 ± 0.25

UCGAAGCAAUAUUACGCCCC
self-splicing fitness (ln) (30 °C): -1.87 ± 0.44

GAAAAGCAAUAUUACGCCGC
self-splicing fitness (ln) (30 °C): -2.23 ± 0.25

CCCGAGCAAUAUUACGAUCC
self-splicing fitness (ln) (30 °C): -2.76 ± 0.24 | self-splicing fitness (ln) (37 °C): -2.71 ± 0.27

GGUAAGCAAUAUUACGACCU
self-splicing fitness (ln) (30 °C): -1.81 ± 0.18 | self-splicing fitness (ln) (37 °C): -1.93 ± 0.24

UUUAAGCAAUAUUACGAGCU
self-splicing fitness (ln) (30 °C): -2.94 ± 0.22 | self-splicing fitness (ln) (37 °C): -0.0484 ± 0.17
